Reference: IntAct's records for PubMed 17446860

B1: Vacuolar-sorting protein BRO1 (Saccharomyces cerevisiae), P48582 (parent)
chain: MKPYLFDLKLKDTEKLDWKKGLSSYLKKSYGSSQWRTFYDEKATSELDHLRNNANGELAPSSLSEQNLKYYSFLEHLYFRLGSKGSRLKMDFTWYDAEYSSAQKGLKYTQHTLAFEKSCTLFNIAVIFTQIARENINEDYKNSIANLTKAFSCFEYLSENFLNSPSVDLQSENTRFLANICHAEAQELFVLKLLNDQISSKQYTLISKLSRATCNLFQKCHDFMKEIDDDVAIYGEPKWKTTVTCKLHFYKSLSAYYHGLHLEEENRVGEAIAFLDFSMQQLISSLPFKTWLVEFIDFDGFKETLEKKQKELIKDNDFIYHESVPAVVQVDSIKALDAIKSPTWEKILEPYMQDVANKCDSLYRGIIPLDVYEKESIYSEEKATLLRKQVEETETANLEYSSFIEFTNLPRLLSDLEKQFSDGNIFSNTDTQGQLMRDQIQTWCKFIQTNEFRDIEEQMNKIVFKRKQILEILSALPNDQKENVTKLKSSLVAASNSDEKLFACVKPHIVEINLLNDNGKIWKKFDEFNRNTPPQPSLLDIDDTKNDKILELLKQVKGHAEDLRTLKEERSRNLSELRDEINNDDITKLLIINKGKSDVELKDLFEVELEKFEPLSTRIEATIYKQSSMIDDIKAKLDEIFHLSNFKDKSSGEEKFLEDRKNFFDKLQEAVKSFSIFASDLPKGIEFYDSLFNMSRDLAERVRVAKQTEDSTANSPAPPLPPLDSKASVVGGPPLLPQKSAAFQSLSRQGLNLGDQFQNLKISAGSDLPQGPGIPPRTYEASPYAATPTMAAPPVPPKQSQEDMYDLRRRKAVENEERELQENPTSFYNRPSVFDENMYSKYSS
partner: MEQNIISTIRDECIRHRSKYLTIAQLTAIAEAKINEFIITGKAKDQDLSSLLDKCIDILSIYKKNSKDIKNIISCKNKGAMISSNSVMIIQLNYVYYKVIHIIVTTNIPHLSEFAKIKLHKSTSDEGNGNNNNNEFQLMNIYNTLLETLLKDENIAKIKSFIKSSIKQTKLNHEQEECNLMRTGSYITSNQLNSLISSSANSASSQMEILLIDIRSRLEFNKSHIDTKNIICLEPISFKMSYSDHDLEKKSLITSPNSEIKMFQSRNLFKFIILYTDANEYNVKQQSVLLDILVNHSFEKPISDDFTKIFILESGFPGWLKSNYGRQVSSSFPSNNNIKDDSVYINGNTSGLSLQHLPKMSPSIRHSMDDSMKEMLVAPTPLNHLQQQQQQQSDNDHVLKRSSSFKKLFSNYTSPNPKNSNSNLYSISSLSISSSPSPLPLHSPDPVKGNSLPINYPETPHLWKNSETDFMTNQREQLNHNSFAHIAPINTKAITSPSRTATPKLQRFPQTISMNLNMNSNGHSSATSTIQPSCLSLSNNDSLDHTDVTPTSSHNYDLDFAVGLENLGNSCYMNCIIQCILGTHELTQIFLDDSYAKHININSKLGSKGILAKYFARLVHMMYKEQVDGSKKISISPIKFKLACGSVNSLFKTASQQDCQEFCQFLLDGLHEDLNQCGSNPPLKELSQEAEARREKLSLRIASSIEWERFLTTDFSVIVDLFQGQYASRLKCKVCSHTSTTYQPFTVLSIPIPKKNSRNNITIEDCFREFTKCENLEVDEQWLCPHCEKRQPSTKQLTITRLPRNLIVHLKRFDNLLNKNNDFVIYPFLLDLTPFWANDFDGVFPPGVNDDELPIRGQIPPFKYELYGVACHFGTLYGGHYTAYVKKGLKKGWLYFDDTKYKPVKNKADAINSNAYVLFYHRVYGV
B2: Ubiquitin carboxyl-terminal hydrolase 4 (Saccharomyces cerevisiae), P32571 (parent)
chain: B1 partner
partner: B1 chain

Variants of: B1
Conditions: with ubp4_yeast DOA4, P32571

| Variant | effect of a mutation on the interaction |
| --- | --- |
| F834A | disrupting interaction |

Variants of: B1
Conditions: with ubp4_yeast DOA4, P32571
Remark: another data set of the same source

| Variant | effect of a mutation on the interaction |
| --- | --- |
| S832A | disrupting interaction |

Variants of: B1
Conditions: with ubp4_yeast DOA4, P32571
Remark: another data set of the same source

| Variant | effect of a mutation on the interaction |
| --- | --- |
| P831A | disrupting interaction |

Variants of: B1
Conditions: with ubp4_yeast DOA4, P32571
Remark: another data set of the same source

| Variant | effect of a mutation on the interaction |
| --- | --- |
| V833A | disrupting interaction |

Variants of: B2
Conditions: with bro1_yeast BRO1, P48582

| Variant | effect of a mutation on the interaction |
| --- | --- |
| V824A | disrupting interaction |

Variants of: B2
Conditions: with bro1_yeast BRO1, P48582
Remark: another data set of the same source

| Variant | effect of a mutation on the interaction |
| --- | --- |
| L830A | disrupting interaction |

Variants of: B2
Conditions: with bro1_yeast BRO1, P48582
Remark: another data set of the same source

| Variant | effect of a mutation on the interaction |
| --- | --- |
| Y826A | disrupting interaction |

Variants of: B2
Conditions: with bro1_yeast BRO1, P48582
Remark: another data set of the same source

| Variant | effect of a mutation on the interaction |
| --- | --- |
| I825A | decreasing interaction |

Variants of: B2
Conditions: with bro1_yeast BRO1, P48582
Remark: another data set of the same source

| Variant | effect of a mutation on the interaction |
| --- | --- |
| P827A | disrupting interaction |

Variants of: B2
Conditions: with bro1_yeast BRO1, P48582
Remark: another data set of the same source

| Variant | effect of a mutation on the interaction |
| --- | --- |
| L829A | disrupting interaction |
